Data taken from US20190233493A1 (Sanofi, published 2019).
Values belong to the binder of their own block, whether it stands above or below them. *1 amine or outer side, *2 acyl side, *3 side chain or, on linkers, in order; H or OH if unused. Primed or numbered codes have the meaning given here. Side-chain parts run from the residue outwards. [ ]: non-standard residue; d: D form. The star is where a group is joined. PEG28′ = polyethylene glycol spacer with 28 ethoxy units (aminoethoxy-ethoxy chain); PEG24′ = polyethylene glycol spacer of 24 ethoxy units; PEG12 = NCCOCCOCCOCCOCCOCCOCCOCCOCCOCCOCCOCCOCCC(=O)O; γGlu = O=C(O)[C@H](CCC(=O)[*:2])N[*:1]; 1Nal = N[C@@H](Cc1cccc2ccccc12)C(=O)O; Stearoyl = CCCCCCCCCCCCCCCCCC(=O)*; Palmitoyl = CCCCCCCCCCCCCCCC(=O)*; Nle = CCCC[C@H](N)C(=O)O; Aib = CC(C)(N)C(=O)O

Experiments:
RXFP1 receptor [1] = target: T1, RXFP1 receptor (UniProt Q9HBX9 1-757, limits assumed); experiment: cell-based or functional assay
T1 sequence (looked up): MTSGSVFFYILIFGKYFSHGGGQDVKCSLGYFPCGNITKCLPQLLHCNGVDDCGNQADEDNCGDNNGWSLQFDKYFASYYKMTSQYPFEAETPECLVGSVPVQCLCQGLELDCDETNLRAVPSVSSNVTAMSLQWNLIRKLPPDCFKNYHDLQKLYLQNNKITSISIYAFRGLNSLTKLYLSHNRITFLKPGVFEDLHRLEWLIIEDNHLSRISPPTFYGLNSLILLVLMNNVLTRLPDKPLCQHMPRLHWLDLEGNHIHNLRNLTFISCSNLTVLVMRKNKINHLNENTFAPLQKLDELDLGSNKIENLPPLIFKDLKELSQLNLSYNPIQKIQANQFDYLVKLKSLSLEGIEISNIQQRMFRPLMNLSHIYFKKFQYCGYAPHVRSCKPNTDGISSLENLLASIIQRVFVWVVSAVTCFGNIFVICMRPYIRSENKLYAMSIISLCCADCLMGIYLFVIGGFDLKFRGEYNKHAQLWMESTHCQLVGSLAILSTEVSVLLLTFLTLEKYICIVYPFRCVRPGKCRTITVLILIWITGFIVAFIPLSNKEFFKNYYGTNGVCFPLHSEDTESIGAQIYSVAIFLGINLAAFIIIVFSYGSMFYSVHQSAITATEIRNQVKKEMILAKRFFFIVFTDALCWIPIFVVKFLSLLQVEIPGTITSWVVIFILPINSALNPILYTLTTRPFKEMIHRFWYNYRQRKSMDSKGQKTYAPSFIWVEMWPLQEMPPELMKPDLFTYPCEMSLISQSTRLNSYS

RXFP1 receptor [2] = target: T1, RXFP1 receptor; experiment: cell-based or functional assay; remark: listed apart in the source

Binder: Ac-LEGREKVRAK(Ac)I[Aib][Aib]EG[Nle]STWS[Aib]RKK(Ac)[PEG28′]K([γGlu-γGlu-γGlu-Stearoyl])-NH2 [peptide of SEQ ID NO: 49]
EC50 (nM), OVCAR 5 cells (cAMP) (RXFP1 receptor [1]): 1.65 nM
EMax, OVCAR 5 cells (cAMP) (RXFP1 receptor [1]): 106%

B2: peptide of SEQ ID NO: 46 (peptide)
peptide: Ac-LEGREKVRAK(Ac)I[Aib][Aib]EG[Nle]STYS[Aib]RKK(Ac)[PEG12]K([γGlu-γGlu-γGlu-Stearoyl])-NH2
SMILES: CCCCCCCCCCCCCCCCCC(=O)N[C@@H](CCC(=O)N[C@@H](CCC(=O)N[C@@H](CCC(=O)NCCCC[C@H](NC(=O)CCOCCOCCOCCOCCOCCOCCOCCOCCOCCOCCOCCOCCNC(=O)[C@H](CCCCNC(C)=O)NC(=O)[C@H](CCCCN)NC(=O)[C@H](CCCNC(=N)N)NC(=O)C(C)(C)NC(=O)[C@H](CO)NC(=O)[C@H](Cc1ccc(O)cc1)NC(=O)[C@@H](NC(=O)[C@H](CO)NC(=O)[C@H](CCCC)NC(=O)CNC(=O)[C@H](CCC(=O)O)NC(=O)C(C)(C)NC(=O)C(C)(C)NC(=O)[C@@H](NC(=O)[C@H](CCCCNC(C)=O)NC(=O)[C@H](C)NC(=O)[C@H](CCCNC(=N)N)NC(=O)[C@@H](NC(=O)[C@H](CCCCN)NC(=O)[C@H](CCC(=O)O)NC(=O)[C@H](CCCNC(=N)N)NC(=O)CNC(=O)[C@H](CCC(=O)O)NC(=O)[C@H](CC(C)C)NC(C)=O)C(C)C)[C@@H](C)CC)[C@@H](C)O)C(N)=O)C(=O)O)C(=O)O)C(=O)O
EC50 (nM), OVCAR 5 cells (cAMP) (RXFP1 receptor [1]): 0.61 nM
EMax, OVCAR 5 cells (cAMP) (RXFP1 receptor [1]): 79%

Binder: Ac-VIKLSGRELVRAQIAISGMSTWSKKKK-NH2 [KKKK(AcB7-29 C11.23S)]
EC50 (nM), cAMP assay in OVCAR 5 cells (RXFP1 receptor [2]): 206 nM
Emax, cAMP assay in OVCAR 5 cells (RXFP1 receptor [2]): 84%

Binder: Ac-VIKLSGRELVRAQIAISGMSTWSKRSL-NH2 [AcB7-33 C11.23S]
EC50 (nM), cAMP assay in OVCAR 5 cells (RXFP1 receptor [2]): 929 nM
Emax, cAMP assay in OVCAR 5 cells (RXFP1 receptor [2]): 70%

Further lines, results first:

EC50 (nM), OVCAR 5 cells (cAMP) (RXFP1 receptor [1]): 0.81 nM
EMax, OVCAR 5 cells (cAMP) (RXFP1 receptor [1]): 79%
B1: peptide of SEQ ID NO: 45 (peptide)
peptide: Ac-LEGREKVRAK(Ac)I[Aib][Aib]EG[Nle]ST[1Nal]S[Aib]RK[PEG12]K([γGlu-γGlu-γGlu-Stearoyl])-NH2
SMILES: CCCCCCCCCCCCCCCCCC(=O)N[C@@H](CCC(=O)N[C@@H](CCC(=O)N[C@@H](CCC(=O)NCCCC[C@H](NC(=O)CCOCCOCCOCCOCCOCCOCCOCCOCCOCCOCCOCCOCCNC(=O)[C@H](CCCCN)NC(=O)[C@H](CCCNC(=N)N)NC(=O)C(C)(C)NC(=O)[C@H](CO)NC(=O)[C@H](Cc1cccc2ccccc12)NC(=O)[C@@H](NC(=O)[C@H](CO)NC(=O)[C@H](CCCC)NC(=O)CNC(=O)[C@H](CCC(=O)O)NC(=O)C(C)(C)NC(=O)C(C)(C)NC(=O)[C@@H](NC(=O)[C@H](CCCCNC(C)=O)NC(=O)[C@H](C)NC(=O)[C@H](CCCNC(=N)N)NC(=O)[C@@H](NC(=O)[C@H](CCCCN)NC(=O)[C@H](CCC(=O)O)NC(=O)[C@H](CCCNC(=N)N)NC(=O)CNC(=O)[C@H](CCC(=O)O)NC(=O)[C@H](CC(C)C)NC(C)=O)C(C)C)[C@@H](C)CC)[C@@H](C)O)C(N)=O)C(=O)O)C(=O)O)C(=O)O

EC50 (nM), cAMP assay in OVCAR 5 cells (RXFP1 receptor [2]): 1640 nM
Emax, cAMP assay in OVCAR 5 cells (RXFP1 receptor [2]): 90%
Binder: H-VIKLSGRELVRAQIAISGMSTWSKRSL-NH2 [B7-33 C11.23S]

EC50 (nM), OVCAR 5 cells (cAMP) (RXFP1 receptor [1]): 2.56 nM
EMax, OVCAR 5 cells (cAMP) (RXFP1 receptor [1]): 100%
Binder: Ac-LEGREKVRAQI[Aib][Aib]EGMSTWS[Aib]RK[PEG24′]K([γGlu-γGlu-γGlu-Palmitoyl])-NH2 [peptide of SEQ ID NO: 47]

EC50 (nM), OVCAR 5 cells (cAMP) (RXFP1 receptor [1]): 0.25 nM
EMax, OVCAR 5 cells (cAMP) (RXFP1 receptor [1]): 99%
Binder: Ac-LEGREKVRAK(Ac)I[Aib][Aib]EG[Nle]STWS[Aib]RKK[PEG28′]K([γGlu-γGlu-γGlu-Stearoyl])-NH2 [peptide of SEQ ID NO: 48]
